Target: the molecule itself
Assay: crystal structure; Ca2+-bound state: protein purified with 1 mM CaCl2 in 50 mM Tris-HCl pH 8.0, 250 mM NaCl; crystals in 21% PEG 550 MME, 50 mM MgAc2, 100 mM Tris pH 8.2, 20 °C; space group I4, one subunit per asymmetric unit, tetramer by crystallographic fourfold; 1.6 Å

B1: LjCASTOR soluble domain (residues 312-853) (domain or fragment, Lotus japonicus, UniProt Q5H8A6 312-853, looked up)
chain: KGKSEVVEQNHTLILGWSDKLGSLLNQLAIANESLGGGTIAVMAERDKEDMELDIGKMEFDFKGTSVICRSGSPLILADLKKVSVSKARTIIVLAEDGNADQSDARALRTVLSLTGVKEGLRGHIVVEMSDLDNEVLVKLVGGDLVETVVAHDVIGRLMIQCARQPGLAQIWEDILGFENCEFYIKRWPQLDGMLFEDVLISFPAAIPCGIKVASYGGKIILNPDDSYVLQEGDEVLVIAEDDDTYAPAPLPMVRRGSLPKDFVYPKSPERILFCGWRRDMEDMITVLDASLAPDSELWMFNDVPEKEREKKLIDGGLDISRLENISLVNREGNAVIRRHLESLPLESFDSILILADESVEDSAIQADSRSLATLLLIRDIQARRLPYVAMASQTQGGNFSKGSWIGEMKQASDKTVIISEILDPRTKNLLSMSKISDYVLSNELVSMALAMVAEDRQINDVLEELFAEEGNEMHIRQADIYLREGEEMSFYEIMLRARQRREILIGYRLANAERAVINPPAKTGRRKWSLKDVFVVITEKE
notes: CASTOR ion channel from Lotus japonicus, soluble domain after the transmembrane region, residues 312-853; two tandem RCK domains (RCK1 320-552, linker 553-580, RCK2 581-853); Cloned into pQE60 with a C-terminal hexahistidine tag; no removal of the tag is described; A selenomethionine-substituted form was used for phasing only; Residues 699-726 have no electron density; also called LjCASTOR RCK …
stoichiometry N: 4

From article PMC6697748, “Ca^2+-regulated Ca^2+ channels with an RCK gating ring control plant symbiotic associations” (Nature Communications, 2019)
